# In patent US20150185222A1 (TORAY INDUSTRIES, published 2015):
# B1: mouse-chicken chimeric anti-human CAPRIN-1 monoclonal antibody #12 (antibody, mouse IgG1, V domains shown)
# VH: AVTLDESGGGLQMSRGGLSLVCKASGFDFSSYQMNWIRQAPGKGLEFVAAINKFGNSTGHGAAVKGRVTISRDNGQSTVRLQLNNLRAEDTAIYFCTKHAYGYCGSGTWCAAGEIDAWGHGTEVIVSS
# VL: QAASTQPSSVSANPGETVEITCSGGGSYSYGWFQQKSPGSAPVTVIYYNNKRPSDIPSRFSGSKSGSTGTLTITGVQADDEAVYYCGSGDSTDTAVFGAGTTLTVLG
# notes: Variable regions of chicken antibody #11 with the constant regions of mouse IgG1 (H chain and L chain constant regions); produced in CHO-K1; also called mouse-chicken anti-human CAPRIN-1 monoclonal antibody (#12)
# Key:
# [1] = molecular target: T1, polypeptide consisting of the amino acid sequence of SEQ ID NO: 66 (human); assay: trypsin or chymotrypsin digestion of antibody-CAPRIN-1 complex, protein G Sepharose, MS/MS of recovered peptides
# T1 peptide: QQPQAASPSVPE
# Procedure: The cancer cell surface-reactive mouse-chicken chimeric anti-human CAPRIN-1 monoclonal antibody #12 obtained in the paragraph (4) was used to identify a CAPRIN-1 epitope region recognized thereby. 100 μg of recombinant CAPRIN-1 proteins was dissolved in a protein inhibitor-free dissolving buffer and reacted with the mouse-chicken chimeric anti-human CAPRIN-1 monoclonal antibody #12. To this solution, a digestive enzyme trypsin or chymotrypsin was added, followed by digestion reaction at a suitable temperature. After the reaction, a protein G Sepharose carrier was added thereto, then reacted, and precipitated by centrifugation operation. After removal of the supernatant, the carrier was washed with a dissolving buffer and PBS and dissolved in 0.1% formic acid, and the supernatant was recovered. The recovered supernatant sample was applied to a reverse-phase column (HLB Extraction Cartridge (Waters-OASIS)) to obtain an antibody-free sample solution. The obtained sample was subjected to reverse-phase liquid chromatography (Chromatography Nanosytem (KYA Technologies Corp.)) to recover a solution containing only peptides. The solution was introduced to a tandem-type mass spectrometer Quadrupole-TOF Mass Spectrometer (Waters-MicroMass) and analyzed by MS/MS to detect the peptides contained in the sample. […]
# [2] = molecular target: human CAPRIN-1 expressed on the surface of human cancer cells and in human cancer tissues (human) (UniProt Q14444); assay: flow cytometry, 2 µg antibody on 8 human breast cancer cell lines (ZR75-1, MCF7, T47D, SK-BR-3, MDA-MB-157, BT-20, MDA-MB-231V, MRK-nu-1); control mouse IgG1
# [3] = molecular target: human CAPRIN-1 expressed on the surface of human cancer cells and in human cancer tissues (human) (UniProt Q14444); assay: flow cytometry on human cancer cell lines Caki-1, Caki-2, A498, T24, SKOV3, QG56, PC3, Hela, HT1080, T98G, U87MG, MNK28, Lovo, Capan-2, MIAPaCa-2, Panc-1, BxPC-3; control mouse IgG1
binder,measurement,setting,value
B1,binding result,[1],binds
same,rate of increase in mean fluorescence intensity (MFI) over control,[2],> 35%
same,rate of increase in mean fluorescence intensity (MFI) over control,[3],> 35%
